Reference: paper PMC12416549 (2024)

Target: T1, TNFR1 (Homo sapiens, UniProt P19438)
T1 chain: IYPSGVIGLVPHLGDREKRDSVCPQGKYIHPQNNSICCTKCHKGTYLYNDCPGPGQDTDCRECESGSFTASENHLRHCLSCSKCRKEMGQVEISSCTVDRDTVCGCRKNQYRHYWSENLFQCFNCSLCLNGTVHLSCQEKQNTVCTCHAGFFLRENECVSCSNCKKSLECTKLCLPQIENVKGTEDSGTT
Test: yeast display SC50

B1: K35H (designed binder)
chain: MTLQELLREEALRRAEAEAFRYALELLAEKFPEQHEYLLDLAEEIESQIRSLSGVDVEDVRKFLDKEWAWVKELLAEHPAELAEVEAARAARLAELRAEVEAKVAA
apparent Kd (screen): 0.446 nM

B2: S47T (designed binder)
chain: MTLQELLREEALRRAEAEAFRYALELLAEKFPEQKEYLLDLAEEIETQIRSLSGVDVEDVRKFLDKEWAWVKELLAEHPAELAEVEAARAARLAELRAEVEAKVAA
apparent Kd (screen): 0.653 nM

B3: K62W (designed binder)
chain: MTLQELLREEALRRAEAEAFRYALELLAEKFPEQKEYLLDLAEEIESQIRSLSGVDVEDVRWFLDKEWAWVKELLAEHPAELAEVEAARAARLAELRAEVEAKVAA
apparent Kd (screen): 0.593 nM

B4: P32H (designed binder)
chain: MTLQELLREEALRRAEAEAFRYALELLAEKFHEQKEYLLDLAEEIESQIRSLSGVDVEDVRKFLDKEWAWVKELLAEHPAELAEVEAARAARLAELRAEVEAKVAA
apparent Kd (screen): 0.79 nM

B5: V100C (designed binder)
chain: MTLQELLREEALRRAEAEAFRYALELLAEKFPEQKEYLLDLAEEIESQIRSLSGVDVEDVRKFLDKEWAWVKELLAEHPAELAEVEAARAARLAELRAECEAKVAA
apparent Kd (screen): 0.446 nM

B6: S51D (designed binder)
chain: MTLQELLREEALRRAEAEAFRYALELLAEKFPEQKEYLLDLAEEIESQIRDLSGVDVEDVRKFLDKEWAWVKELLAEHPAELAEVEAARAARLAELRAEVEAKVAA
apparent Kd (screen): 2.05 nM

B7: E58S (designed binder)
chain: MTLQELLREEALRRAEAEAFRYALELLAEKFPEQKEYLLDLAEEIESQIRSLSGVDVSDVRKFLDKEWAWVKELLAEHPAELAEVEAARAARLAELRAEVEAKVAA
apparent Kd (screen): 0.593 nM

B8: L93A (designed binder)
chain: MTLQELLREEALRRAEAEAFRYALELLAEKFPEQKEYLLDLAEEIESQIRSLSGVDVEDVRKFLDKEWAWVKELLAEHPAELAEVEAARAARAAELRAEVEAKVAA
apparent Kd (screen): 1.4 nM

B9: Y37W (designed binder)
chain: MTLQELLREEALRRAEAEAFRYALELLAEKFPEQKEWLLDLAEEIESQIRSLSGVDVEDVRKFLDKEWAWVKELLAEHPAELAEVEAARAARLAELRAEVEAKVAA
apparent Kd (screen): 3.3 nM

B10: D56T (designed binder)
chain: MTLQELLREEALRRAEAEAFRYALELLAEKFPEQKEYLLDLAEEIESQIRSLSGVTVEDVRKFLDKEWAWVKELLAEHPAELAEVEAARAARLAELRAEVEAKVAA
apparent Kd (screen): 2.48 nM

B11: A105S (designed binder)
chain: MTLQELLREEALRRAEAEAFRYALELLAEKFPEQKEYLLDLAEEIESQIRSLSGVDVEDVRKFLDKEWAWVKELLAEHPAELAEVEAARAARLAELRAEVEAKVSA
apparent Kd (screen): 0.79 nM

B12: L75T (designed binder)
chain: MTLQELLREEALRRAEAEAFRYALELLAEKFPEQKEYLLDLAEEIESQIRSLSGVDVEDVRKFLDKEWAWVKELTAEHPAELAEVEAARAARLAELRAEVEAKVAA
apparent Kd (screen): 0.869 nM

B13: E58W (designed binder)
chain: MTLQELLREEALRRAEAEAFRYALELLAEKFPEQKEYLLDLAEEIESQIRSLSGVDVWDVRKFLDKEWAWVKELLAEHPAELAEVEAARAARLAELRAEVEAKVAA
apparent Kd (screen): 0.653 nM

B14: E36R (designed binder)
chain: MTLQELLREEALRRAEAEAFRYALELLAEKFPEQKRYLLDLAEEIESQIRSLSGVDVEDVRKFLDKEWAWVKELLAEHPAELAEVEAARAARLAELRAEVEAKVAA
apparent Kd (screen): 0.653 nM
